# Reference: patent US20230295330A1 (Seagen, published 2023)
# T1: human CD228 (R&D Systems Custom02; Lot DCWR021505A) (human, UniProt P08582 20-709, limits assumed)
# T1 construct: Bought custom protein coated on ELISA plates; also called CD228 protein; melanotransferrin
# T1 sequence (looked up): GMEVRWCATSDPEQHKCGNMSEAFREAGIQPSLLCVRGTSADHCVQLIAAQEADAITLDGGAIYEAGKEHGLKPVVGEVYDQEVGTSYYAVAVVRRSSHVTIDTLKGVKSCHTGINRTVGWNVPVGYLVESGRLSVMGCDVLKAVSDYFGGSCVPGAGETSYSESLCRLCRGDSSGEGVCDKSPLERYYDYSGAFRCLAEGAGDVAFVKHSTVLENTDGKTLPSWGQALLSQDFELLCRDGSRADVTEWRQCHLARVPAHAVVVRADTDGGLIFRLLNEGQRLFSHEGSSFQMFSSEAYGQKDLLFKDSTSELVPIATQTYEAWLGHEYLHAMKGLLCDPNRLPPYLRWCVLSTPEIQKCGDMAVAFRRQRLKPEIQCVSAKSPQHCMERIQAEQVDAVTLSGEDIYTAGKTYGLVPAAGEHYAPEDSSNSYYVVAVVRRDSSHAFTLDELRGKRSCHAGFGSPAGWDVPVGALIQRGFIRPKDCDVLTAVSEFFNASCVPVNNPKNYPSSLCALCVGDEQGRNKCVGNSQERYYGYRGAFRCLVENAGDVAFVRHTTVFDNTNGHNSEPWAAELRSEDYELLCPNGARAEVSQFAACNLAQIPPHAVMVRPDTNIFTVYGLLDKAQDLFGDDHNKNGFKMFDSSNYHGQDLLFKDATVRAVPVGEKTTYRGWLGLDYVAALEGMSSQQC
# T2: CD228 on A375 and A2058 cells (human, UniProt P08582 20-709)
# T2 construct: whole, on cells; GPI-anchored cell surface protein; also called CD228 on A375 cells; CD228 on A2058 cells
# T2 sequence (looked up): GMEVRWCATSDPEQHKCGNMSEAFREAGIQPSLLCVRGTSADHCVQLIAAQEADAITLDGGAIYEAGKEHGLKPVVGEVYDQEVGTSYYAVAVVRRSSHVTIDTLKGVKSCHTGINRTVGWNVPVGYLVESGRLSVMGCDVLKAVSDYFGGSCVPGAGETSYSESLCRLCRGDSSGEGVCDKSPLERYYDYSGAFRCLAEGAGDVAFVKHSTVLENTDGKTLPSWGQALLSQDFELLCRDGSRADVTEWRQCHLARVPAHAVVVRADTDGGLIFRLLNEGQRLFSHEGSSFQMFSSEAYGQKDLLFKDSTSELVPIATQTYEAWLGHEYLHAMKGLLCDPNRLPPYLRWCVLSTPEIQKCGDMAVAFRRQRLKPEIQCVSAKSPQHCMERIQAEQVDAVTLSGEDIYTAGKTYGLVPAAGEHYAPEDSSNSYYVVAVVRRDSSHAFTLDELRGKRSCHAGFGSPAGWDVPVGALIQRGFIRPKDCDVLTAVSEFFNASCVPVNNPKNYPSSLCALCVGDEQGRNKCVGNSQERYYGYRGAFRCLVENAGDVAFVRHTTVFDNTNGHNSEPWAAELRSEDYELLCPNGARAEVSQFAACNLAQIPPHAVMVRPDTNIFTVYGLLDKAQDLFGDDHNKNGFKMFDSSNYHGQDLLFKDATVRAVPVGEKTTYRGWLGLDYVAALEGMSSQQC
# Columns and labels:
# [1] = biological target: T1, human CD228 (R&D Systems Custom02; Lot …); assay: ELISA, coated human CD228, pH 6.30
# Method: (§1) Briefly, 100 ng of human CD228 (R&D Systems Custom02; Lot DCWR021505A) or BSA (Sigma; Catalog No. A7030-100G) were diluted in PBS and added to each well overnight at 4° C. Plates were then washed three times with PBS-T (EMD Millipore; Catalog No. 5246531EA). After washing, plates were blocked with 3% (w/v) BSA in PBS-T for 1 hour at room temperature. Excess blocking buffer was then removed and the primary antibody was added in 3-fold dilutions in diluent buffer (0.15M citrate-phosphate buffer pH 4.0-7.5) starting at an antibody concentration of 60 nM. After incubating for 1 hour at room temperature, the plates were washed 3 times and then incubated with secondary antibody (Goat anti-human IgG Fc-specific HRP-conjugated, Jackson ImmunoResearch code #109-035-098) in PBS-T with 1% BSA. After incubating for 30 minutes at room temperature, plates were washed 3 times. 100 μl TMB substrate (Life Technologies-, Cat #002023) was then added to each well. After incubating 10 minutes at room temperature, 100 μl H₂SO₄ was added to each well to stop the reaction, plates were covered with clear plate seal and read on an Envision at […]. pH-dependent binding for hL49 and nine variants with histidine substituted to alanine, glutamine, or tyrosine in the light chain CDRs are shown in FIG. 1A-1I. […] The triple mutants have lower affinity overall compared to hL49.
# [2] = biological target: T1, human CD228 (R&D Systems Custom02; Lot …); assay: ELISA, coated human CD228, pH 7.40
# Method: as §1
# [3] = biological target: T1, human CD228 (R&D Systems Custom02; Lot …); assay: BLI (Octet Red 384), antibody as ligand, antigen as analyte
# Method: The binding kinetics of hL49, hL49_34Ala, and hL49_Tyr were determined using BioLayer Interferometry (BLI) technology in an Octet Red 384 instrument using the antibodies as the ligands and the antigen as the analyte. […] In contrast, hL49_34Tyr has a slower on-rate but a similar off-rate compared to wild-type hL49, which may explain its reduced affinity on cells.
# [4] = biological target: T1, human CD228 (R&D Systems Custom02; Lot …); assay: ELISA on CD228 protein, neutral pH (rounded form of Table 2, pH 7.40)
# [5] = biological target: T2, CD228 on A375 and A2058 cells; assay: flow cytometry saturation binding on A375 cells (~18K receptors), neutral pH
# Method: (§2) The ability of various anti-CD228 antibodies to bind to CD228 on A375 cells, A2058 cells, and CD228 protein was evaluated at neutral pH using a saturation binding assay. Briefly, 1×10⁵ A2058 or A375 cells that have either 40,000 or 18,000 copies of CD228 respectively, were aliquoted per well of a 96-well v-bottom plates. Each CD228 antibody was added in concentrations ranging from 0.66 pM to 690 nM and incubated on ice for 60 minutes. Cells were pelleted and washed 3× with PBS/BSA followed by addition of 10 μg/ml of a PE labeled anti-human IgG goat secondary antibody and incubated on ice for an additional 60 minutes. Cells were pelleted and washed 3× with PBS/BSA and resuspended in 125 μL of PBS/BSA. Fluorescence was analyzed by flow cytometry, using percent of saturated fluorescent signal to determine percent bound and to subsequently calculate apparent KID. […] The histidine 34 variants show large differences for substitutions with alanine, glutamine, and tyrosine.
# [6] = biological target: T2, CD228 on A375 and A2058 cells; assay: flow cytometry saturation binding on A2058 cells (~40K receptors), neutral pH
# Method: as §2
# [7] = biological target: T1, human CD228 (R&D Systems Custom02; Lot …); assay: ELISA, coated human CD228, pH 4.55
# Method: as §1
# [8] = biological target: T1, human CD228 (R&D Systems Custom02; Lot …); assay: ELISA, coated human CD228, pH 5.60
# Method: as §1
Binder,EC50 [1],EC50 [2],Kd [3],kobs [3],koff [3],kon [3],EC50 [4],EC50 [5],EC50 [6],EC50 [7],EC50 [8]
"hL49 (antibody, V domains shown, Humanized antibody; Only variable domains are tied to it; also called hL49 HALC; hL49 WT) VH: QVQLQESGPGLVKPSETLSLTCTVSGDSITSGYWNWIRQPPGKGLEYIGYISDSGITYYNPSLKSRVTISRDTSKNQYSLKLSSVTAADTAVYYCARRTLATYYAMDYWGQGTLVTVSS VL: DFVMTQSPLSLPVTLGQPASISCRASQSLVHSDGNTYLHWYQQRPGQSPRLLIYRVSNRFSGVPDRFSGSGSGTDFTLKISRVEAEDVGVYYCSQSTHVPPTFGQGTKLEIK",136 nM,1.76 nM,13.1 nM,0.0853 s⁻¹,0.0011 s⁻¹,84200 M⁻¹ s⁻¹,1.8 nM,1.1 nM,0.6 nM,–,–
"hL49_27D_Ala (antibody, V domains shown, hL49 variant with the light chain CDR-L1 histidine 27D changed to alanine) VH: QVQLQESGPGLVKPSETLSLTCTVSGDSITSGYWNWIRQPPGKGLEYIGYISDSGITYYNPSLKSRVTISRDTSKNQYSLKLSSVTAADTAVYYCARRTLATYYAMDYWGQGTLVTVSS VL: DFVMTQSPLSLPVTLGQPASISCRASQSLVASDGNTYLHWYQQRPGQSPRLLIYRVSNRFSGVPDRFSGSGSGTDFTLKISRVEAEDVGVYYCSQSTHVPPTFGQGTKLEIK",0.99 nM,0.55 nM,–,–,–,–,0.6 nM,1.1 nM,0.6 nM,460 nM,9.14 nM
"hL49_3X_Tyr (antibody, V domains shown, hL49 triple mutant: all three light chain CDR histidines changed to tyrosine) VH: QVQLQESGPGLVKPSETLSLTCTVSGDSITSGYWNWIRQPPGKGLEYIGYISDSGITYYNPSLKSRVTISRDTSKNQYSLKLSSVTAADTAVYYCARRTLATYYAMDYWGQGTLVTVSS VL: DFVMTQSPLSLPVTLGQPASISCRASQSLVYSDGNTYLYWYQQRPGQSPRLLIYRVSNRFSGVPDRFSGSGSGTDFTLKISRVEAEDVGVYYCSQSTYVPPTFGQGTKLEIK",74.6 nM,5.43 nM,–,–,–,–,5.4 nM,2.1 nM,1.3 nM,–,–
"hL49_3X_Ala (antibody, V domains shown, hL49 triple mutant: all three light chain CDR histidines (two in CDR-L1, one in CDR-L3) changed to alanine) VH: QVQLQESGPGLVKPSETLSLTCTVSGDSITSGYWNWIRQPPGKGLEYIGYISDSGITYYNPSLKSRVTISRDTSKNQYSLKLSSVTAADTAVYYCARRTLATYYAMDYWGQGTLVTVSS VL: DFVMTQSPLSLPVTLGQPASISCRASQSLVASDGNTYLAWYQQRPGQSPRLLIYRVSNRFSGVPDRFSGSGSGTDFTLKISRVEAEDVGVYYCSQSTAVPPTFGQGTKLEIK",73.8 nM,4.46 nM,–,–,–,–,4.5 nM,1.4 nM,0.9 nM,108 nM,405 nM
"hL49_34_Ala (antibody, V domains shown, hL49 variant with the light chain CDR-L1 histidine 34 changed to alanine; also called hL49_H34A) VH: QVQLQESGPGLVKPSETLSLTCTVSGDSITSGYWNWIRQPPGKGLEYIGYISDSGITYYNPSLKSRVTISRDTSKNQYSLKLSSVTAADTAVYYCARRTLATYYAMDYWGQGTLVTVSS VL: DFVMTQSPLSLPVTLGQPASISCRASQSLVHSDGNTYLAWYQQRPGQSPRLLIYRVSNRFSGVPDRFSGSGSGTDFTLKISRVEAEDVGVYYCSQSTHVPPTFGQGTKLEIK",16.5 nM,1.2 nM,15.8 nM,0.282 s⁻¹,0.00438 s⁻¹,277000 M⁻¹ s⁻¹,1.2 nM,1.6 nM,1.3 nM,–,271 nM

# Second part, the binder after the results:
EC50 [1],EC50 [2],Kd [3],kobs [3],koff [3],kon [3],EC50 [4],EC50 [5],EC50 [6],EC50 [7],EC50 [8],Binder
–,–,132 nM,0.0113 s⁻¹,0.00132 s⁻¹,10000 M⁻¹ s⁻¹,–,79 nM,11.2 nM,–,–,"hL49_34_Tyr (antibody, V domains shown, hL49 variant with the light chain CDR-L1 histidine 34 changed to tyrosine; also called hL49_H34Y; hL49_Tyr) VH: QVQLQESGPGLVKPSETLSLTCTVSGDSITSGYWNWIRQPPGKGLEYIGYISDSGITYYNPSLKSRVTISRDTSKNQYSLKLSSVTAADTAVYYCARRTLATYYAMDYWGQGTLVTVSS VL: DFVMTQSPLSLPVTLGQPASISCRASQSLVHSDGNTYLYWYQQRPGQSPRLLIYRVSNRFSGVPDRFSGSGSGTDFTLKISRVEAEDVGVYYCSQSTHVPPTFGQGTKLEIK"
1.48 nM,0.68 nM,–,–,–,–,0.7 nM,0.9 nM,0.5 nM,365 nM,17.3 nM,"hL49_27D_Gln (antibody, V domains shown, hL49 variant with the light chain CDR-L1 histidine 27D changed to glutamine) VH: QVQLQESGPGLVKPSETLSLTCTVSGDSITSGYWNWIRQPPGKGLEYIGYISDSGITYYNPSLKSRVTISRDTSKNQYSLKLSSVTAADTAVYYCARRTLATYYAMDYWGQGTLVTVSS VL: DFVMTQSPLSLPVTLGQPASISCRASQSLVQSDGNTYLHWYQQRPGQSPRLLIYRVSNRFSGVPDRFSGSGSGTDFTLKISRVEAEDVGVYYCSQSTHVPPTFGQGTKLEIK"
23.4 nM,1.65 nM,–,–,–,–,1.7 nM,5.5 nM,2.1 nM,–,169 nM,"hL49_34_Gln (antibody, V domains shown, hL49 variant with the light chain CDR-L1 histidine 34 changed to glutamine) VH: QVQLQESGPGLVKPSETLSLTCTVSGDSITSGYWNWIRQPPGKGLEYIGYISDSGITYYNPSLKSRVTISRDTSKNQYSLKLSSVTAADTAVYYCARRTLATYYAMDYWGQGTLVTVSS VL: DFVMTQSPLSLPVTLGQPASISCRASQSLVHSDGNTYLQWYQQRPGQSPRLLIYRVSNRFSGVPDRFSGSGSGTDFTLKISRVEAEDVGVYYCSQSTHVPPTFGQGTKLEIK"
52.6 nM,14.6 nM,–,–,–,–,14.6 nM,2.1 nM,1.3 nM,–,–,"hL49_3X_Gln (antibody, V domains shown, hL49 triple mutant: all three light chain CDR histidines changed to glutamine; also called 3X-Gin) VH: QVQLQESGPGLVKPSETLSLTCTVSGDSITSGYWNWIRQPPGKGLEYIGYISDSGITYYNPSLKSRVTISRDTSKNQYSLKLSSVTAADTAVYYCARRTLATYYAMDYWGQGTLVTVSS VL: DFVMTQSPLSLPVTLGQPASISCRASQSLVQSDGNTYLQWYQQRPGQSPRLLIYRVSNRFSGVPDRFSGSGSGTDFTLKISRVEAEDVGVYYCSQSTQVPPTFGQGTKLEIK"
